Laboratory results reported in patent publication US20210388087A1 (Chugai, published 2021).

T1: Human CD3eg linker (human)
T1 construct: Single chain: epsilon and gamma subunits of human CD3 joined by a 29-mer linker, Flag-tag at the C-terminus; also called recombinant human CD3
T1 chain: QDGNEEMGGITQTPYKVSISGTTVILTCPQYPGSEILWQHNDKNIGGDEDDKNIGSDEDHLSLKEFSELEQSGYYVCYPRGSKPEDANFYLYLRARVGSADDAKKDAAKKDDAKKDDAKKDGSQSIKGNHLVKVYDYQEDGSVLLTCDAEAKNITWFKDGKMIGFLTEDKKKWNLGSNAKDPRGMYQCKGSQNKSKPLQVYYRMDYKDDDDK


Target: T1, Human CD3eg linker
Assay: Biacore SPR, vs template H183/L072

| Binder | fold change of affinity |
| --- | --- |
| H183/L072 VH D52aG (antibody, name in Kabat numbering, V domains shown) VH: QVQLVESGGGLVQPGRSLRLSCAASGFTFSNAWMHWVRQAPGKGLEWVAQIKGKGNAYAAYYAPSVKGRFTISRDDSKNSIYLQMNSLKTEDTAVYYCHYVHYASASTVLPAFGVDAWGQGTTVTVSS VL: DIVMTQSPLSLPVTPGEPASISCQASQELVHMNRNTYLHWYQQKPGQAPRLLIYKVSNRFPGVPDRFSGSGSGTDFTLKISRVEAEDVGVYYCAQGTSVPFTFGQGTKLEIK | 0.2 fold |
| H183/L072 VH D52aS (antibody, name in Kabat numbering, V domains shown) VH: QVQLVESGGGLVQPGRSLRLSCAASGFTFSNAWMHWVRQAPGKGLEWVAQIKSKGNAYAAYYAPSVKGRFTISRDDSKNSIYLQMNSLKTEDTAVYYCHYVHYASASTVLPAFGVDAWGQGTTVTVSS VL: DIVMTQSPLSLPVTPGEPASISCQASQELVHMNRNTYLHWYQQKPGQAPRLLIYKVSNRFPGVPDRFSGSGSGTDFTLKISRVEAEDVGVYYCAQGTSVPFTFGQGTKLEIK | 0 fold |
| H183/L072 VH D52aQ (antibody, name in Kabat numbering, V domains shown) VH: QVQLVESGGGLVQPGRSLRLSCAASGFTFSNAWMHWVRQAPGKGLEWVAQIKQKGNAYAAYYAPSVKGRFTISRDDSKNSIYLQMNSLKTEDTAVYYCHYVHYASASTVLPAFGVDAWGQGTTVTVSS VL: DIVMTQSPLSLPVTPGEPASISCQASQELVHMNRNTYLHWYQQKPGQAPRLLIYKVSNRFPGVPDRFSGSGSGTDFTLKISRVEAEDVGVYYCAQGTSVPFTFGQGTKLEIK | 0 fold |
| H183/L072 VH D52aL (antibody, name in Kabat numbering, V domains shown) VH: QVQLVESGGGLVQPGRSLRLSCAASGFTFSNAWMHWVRQAPGKGLEWVAQIKLKGNAYAAYYAPSVKGRFTISRDDSKNSIYLQMNSLKTEDTAVYYCHYVHYASASTVLPAFGVDAWGQGTTVTVSS VL: DIVMTQSPLSLPVTPGEPASISCQASQELVHMNRNTYLHWYQQKPGQAPRLLIYKVSNRFPGVPDRFSGSGSGTDFTLKISRVEAEDVGVYYCAQGTSVPFTFGQGTKLEIK | 0 fold |
| H183/L072 VH D52aH (antibody, name in Kabat numbering, V domains shown) VH: QVQLVESGGGLVQPGRSLRLSCAASGFTFSNAWMHWVRQAPGKGLEWVAQIKHKGNAYAAYYAPSVKGRFTISRDDSKNSIYLQMNSLKTEDTAVYYCHYVHYASASTVLPAFGVDAWGQGTTVTVSS VL: DIVMTQSPLSLPVTPGEPASISCQASQELVHMNRNTYLHWYQQKPGQAPRLLIYKVSNRFPGVPDRFSGSGSGTDFTLKISRVEAEDVGVYYCAQGTSVPFTFGQGTKLEIK | 0.3 fold |
| H183/L072 VH D52aW (antibody, name in Kabat numbering, V domains shown) VH: QVQLVESGGGLVQPGRSLRLSCAASGFTFSNAWMHWVRQAPGKGLEWVAQIKWKGNAYAAYYAPSVKGRFTISRDDSKNSIYLQMNSLKTEDTAVYYCHYVHYASASTVLPAFGVDAWGQGTTVTVSS VL: DIVMTQSPLSLPVTPGEPASISCQASQELVHMNRNTYLHWYQQKPGQAPRLLIYKVSNRFPGVPDRFSGSGSGTDFTLKISRVEAEDVGVYYCAQGTSVPFTFGQGTKLEIK | 0 fold |
| H183/L072 VH D52aN (antibody, name in Kabat numbering, V domains shown) VH: QVQLVESGGGLVQPGRSLRLSCAASGFTFSNAWMHWVRQAPGKGLEWVAQIKNKGNAYAAYYAPSVKGRFTISRDDSKNSIYLQMNSLKTEDTAVYYCHYVHYASASTVLPAFGVDAWGQGTTVTVSS VL: DIVMTQSPLSLPVTPGEPASISCQASQELVHMNRNTYLHWYQQKPGQAPRLLIYKVSNRFPGVPDRFSGSGSGTDFTLKISRVEAEDVGVYYCAQGTSVPFTFGQGTKLEIK | 0.1 fold |
| H183/L072 VH D52aT (antibody, name in Kabat numbering, V domains shown) VH: QVQLVESGGGLVQPGRSLRLSCAASGFTFSNAWMHWVRQAPGKGLEWVAQIKTKGNAYAAYYAPSVKGRFTISRDDSKNSIYLQMNSLKTEDTAVYYCHYVHYASASTVLPAFGVDAWGQGTTVTVSS VL: DIVMTQSPLSLPVTPGEPASISCQASQELVHMNRNTYLHWYQQKPGQAPRLLIYKVSNRFPGVPDRFSGSGSGTDFTLKISRVEAEDVGVYYCAQGTSVPFTFGQGTKLEIK | 0 fold |
| H183/L072 VH D52aI (antibody, name in Kabat numbering, V domains shown) VH: QVQLVESGGGLVQPGRSLRLSCAASGFTFSNAWMHWVRQAPGKGLEWVAQIKIKGNAYAAYYAPSVKGRFTISRDDSKNSIYLQMNSLKTEDTAVYYCHYVHYASASTVLPAFGVDAWGQGTTVTVSS VL: DIVMTQSPLSLPVTPGEPASISCQASQELVHMNRNTYLHWYQQKPGQAPRLLIYKVSNRFPGVPDRFSGSGSGTDFTLKISRVEAEDVGVYYCAQGTSVPFTFGQGTKLEIK | 0 fold |
| H183/L072 VH D52aV (antibody, name in Kabat numbering, V domains shown) VH: QVQLVESGGGLVQPGRSLRLSCAASGFTFSNAWMHWVRQAPGKGLEWVAQIKVKGNAYAAYYAPSVKGRFTISRDDSKNSIYLQMNSLKTEDTAVYYCHYVHYASASTVLPAFGVDAWGQGTTVTVSS VL: DIVMTQSPLSLPVTPGEPASISCQASQELVHMNRNTYLHWYQQKPGQAPRLLIYKVSNRFPGVPDRFSGSGSGTDFTLKISRVEAEDVGVYYCAQGTSVPFTFGQGTKLEIK | 0 fold |
| H183/L072 VH D52aP (antibody, name in Kabat numbering, V domains shown) VH: QVQLVESGGGLVQPGRSLRLSCAASGFTFSNAWMHWVRQAPGKGLEWVAQIKPKGNAYAAYYAPSVKGRFTISRDDSKNSIYLQMNSLKTEDTAVYYCHYVHYASASTVLPAFGVDAWGQGTTVTVSS VL: DIVMTQSPLSLPVTPGEPASISCQASQELVHMNRNTYLHWYQQKPGQAPRLLIYKVSNRFPGVPDRFSGSGSGTDFTLKISRVEAEDVGVYYCAQGTSVPFTFGQGTKLEIK | 0 fold |
| H183/L072 VH D52aR (antibody, name in Kabat numbering, V domains shown) VH: QVQLVESGGGLVQPGRSLRLSCAASGFTFSNAWMHWVRQAPGKGLEWVAQIKRKGNAYAAYYAPSVKGRFTISRDDSKNSIYLQMNSLKTEDTAVYYCHYVHYASASTVLPAFGVDAWGQGTTVTVSS VL: DIVMTQSPLSLPVTPGEPASISCQASQELVHMNRNTYLHWYQQKPGQAPRLLIYKVSNRFPGVPDRFSGSGSGTDFTLKISRVEAEDVGVYYCAQGTSVPFTFGQGTKLEIK | 0 fold |
| H183/L072 VH D52aM (antibody, name in Kabat numbering, V domains shown) VH: QVQLVESGGGLVQPGRSLRLSCAASGFTFSNAWMHWVRQAPGKGLEWVAQIKMKGNAYAAYYAPSVKGRFTISRDDSKNSIYLQMNSLKTEDTAVYYCHYVHYASASTVLPAFGVDAWGQGTTVTVSS VL: DIVMTQSPLSLPVTPGEPASISCQASQELVHMNRNTYLHWYQQKPGQAPRLLIYKVSNRFPGVPDRFSGSGSGTDFTLKISRVEAEDVGVYYCAQGTSVPFTFGQGTKLEIK | 0 fold |
| H183/L072 VH D52aK (antibody, name in Kabat numbering, V domains shown) VH: QVQLVESGGGLVQPGRSLRLSCAASGFTFSNAWMHWVRQAPGKGLEWVAQIKKKGNAYAAYYAPSVKGRFTISRDDSKNSIYLQMNSLKTEDTAVYYCHYVHYASASTVLPAFGVDAWGQGTTVTVSS VL: DIVMTQSPLSLPVTPGEPASISCQASQELVHMNRNTYLHWYQQKPGQAPRLLIYKVSNRFPGVPDRFSGSGSGTDFTLKISRVEAEDVGVYYCAQGTSVPFTFGQGTKLEIK | 0 fold |

The remaining lines, values ahead:

| fold change of affinity | Binder |
| --- | --- |
| 0.7 fold | H183/L072 VH D101M (antibody, name in Kabat numbering, V domains shown) VH: QVQLVESGGGLVQPGRSLRLSCAASGFTFSNAWMHWVRQAPGKGLEWVAQIKDKGNAYAAYYAPSVKGRFTISRDDSKNSIYLQMNSLKTEDTAVYYCHYVHYASASTVLPAFGVMAWGQGTTVTVSS VL: DIVMTQSPLSLPVTPGEPASISCQASQELVHMNRNTYLHWYQQKPGQAPRLLIYKVSNRFPGVPDRFSGSGSGTDFTLKISRVEAEDVGVYYCAQGTSVPFTFGQGTKLEIK |
| 0.8 fold | H183/L072 VH D101A (antibody, name in Kabat numbering, V domains shown) VH: QVQLVESGGGLVQPGRSLRLSCAASGFTFSNAWMHWVRQAPGKGLEWVAQIKDKGNAYAAYYAPSVKGRFTISRDDSKNSIYLQMNSLKTEDTAVYYCHYVHYASASTVLPAFGVAAWGQGTTVTVSS VL: DIVMTQSPLSLPVTPGEPASISCQASQELVHMNRNTYLHWYQQKPGQAPRLLIYKVSNRFPGVPDRFSGSGSGTDFTLKISRVEAEDVGVYYCAQGTSVPFTFGQGTKLEIK |
| 2.3 fold | H183/L072 VH D101L (antibody, name in Kabat numbering, V domains shown) VH: QVQLVESGGGLVQPGRSLRLSCAASGFTFSNAWMHWVRQAPGKGLEWVAQIKDKGNAYAAYYAPSVKGRFTISRDDSKNSIYLQMNSLKTEDTAVYYCHYVHYASASTVLPAFGVLAWGQGTTVTVSS VL: DIVMTQSPLSLPVTPGEPASISCQASQELVHMNRNTYLHWYQQKPGQAPRLLIYKVSNRFPGVPDRFSGSGSGTDFTLKISRVEAEDVGVYYCAQGTSVPFTFGQGTKLEIK |
| 0 fold | H183/L072 VH D101P (antibody, name in Kabat numbering, V domains shown) VH: QVQLVESGGGLVQPGRSLRLSCAASGFTFSNAWMHWVRQAPGKGLEWVAQIKDKGNAYAAYYAPSVKGRFTISRDDSKNSIYLQMNSLKTEDTAVYYCHYVHYASASTVLPAFGVPAWGQGTTVTVSS VL: DIVMTQSPLSLPVTPGEPASISCQASQELVHMNRNTYLHWYQQKPGQAPRLLIYKVSNRFPGVPDRFSGSGSGTDFTLKISRVEAEDVGVYYCAQGTSVPFTFGQGTKLEIK |
| 0 fold | H183/L072 VH D52aY (antibody, name in Kabat numbering, V domains shown) VH: QVQLVESGGGLVQPGRSLRLSCAASGFTFSNAWMHWVRQAPGKGLEWVAQIKYKGNAYAAYYAPSVKGRFTISRDDSKNSIYLQMNSLKTEDTAVYYCHYVHYASASTVLPAFGVDAWGQGTTVTVSS VL: DIVMTQSPLSLPVTPGEPASISCQASQELVHMNRNTYLHWYQQKPGQAPRLLIYKVSNRFPGVPDRFSGSGSGTDFTLKISRVEAEDVGVYYCAQGTSVPFTFGQGTKLEIK |
| 0.6 fold | H183/L072 VH D101I (antibody, name in Kabat numbering, V domains shown) VH: QVQLVESGGGLVQPGRSLRLSCAASGFTFSNAWMHWVRQAPGKGLEWVAQIKDKGNAYAAYYAPSVKGRFTISRDDSKNSIYLQMNSLKTEDTAVYYCHYVHYASASTVLPAFGVIAWGQGTTVTVSS VL: DIVMTQSPLSLPVTPGEPASISCQASQELVHMNRNTYLHWYQQKPGQAPRLLIYKVSNRFPGVPDRFSGSGSGTDFTLKISRVEAEDVGVYYCAQGTSVPFTFGQGTKLEIK |
